Laboratory results published in patent US20130004513A1 (published 2013).

Assays:
[1] = target: Human CD4 on CD4+CD25+ regulatory T cells of healthy donors (human, UniProt P01730 26-458); assay: cell-based or functional assay
[2] = target: T1, Human CD4 on CD4+CD25+ regulatory T cells (human, UniProt P01730 26-458); assay: in vitro assay with CD4+CD25+ regulatory T cells (allogeneic mixed lymphocyte reaction); no separate binding assay described
T1 construct: CD4 on Tregs or T cells of healthy human donors
Protocol: CD4+ CD25+ regulatory T cells were freshly isolated from a first donor (donor A). PBMCs were obtained from EDTA-blood by density gradient centrifugation. […] Tregs were pre-incubated with or without plate-bound antibody for 2 days. The number and phenotype of Tregs was determined by six colour flow cytometry as previously described (Haas et al., 2007). Pre-incubated Tregs were transferred to responder T cells (second donor B) in the presence of T-cell depleted and irradiated PBMCs (first donor A). After stimulation, [³H] thymidine was added and proliferation of responder T cells was measured after five days.

Binder	% Inh1 [1] [%]	% Inh2 [1] [%]	% Inh3 [1] [%]	Avg. % inhibition [1] [%]	binding result [2]
BT61 Lot 52690 (antibody, human IgG1, kappa, V domains shown) VH: EEQLVESGGGLVKPGGSLRLSCAASGFSFSDCRMYWLRQAPGKGLEWIGVISVKSENYGANYAESVRGRFTISRDDSKNTVYLQMNSLKTEDTAVYYCSASYYRYDVGAWFAYWGQGTLVTVSS VL: DIVMTQSPDSLAVSLGERATINCRASKSVSTSGYSYIYWYQQKPGQPPKLLIYLASILESGVPDRFSGSGSGTDFTLTISSLQAEDVAVYYCQHSRELPWTFGQGTKVEIKR	26.7	24.1	27.8	26.2	–
HC master LC L98I (antibody, V domains shown) VH: EEQLVESGGGLVKPGGSLRLSCAASGFSFSDCRMYWLRQAPGKGLEWIGVISVKSENYGANYAESVRGRFTISRDDSKNTVYLQMNSLKTEDTAVYYCSASYYRYDVGAWFAYWGQGTLVTVSS VL: DIVMTQSPDSLAVSLGERATINCRASKSVSTSGYSYIYWYQQKPGQPPKLLIYLASILESGVPDRFSGSGSGTDFTLTISSLQAEDVAVYYCQHSREIPWTFGQGTKVEIKR	12.2	8.4	18.2	12.9	–
LC master HC R33K-A63G (antibody, V domains shown) VH: EEQLVESGGGLVKPGGSLRLSCAASGFSFSDCKMYWLRQAPGKGLEWIGVISVKSENYGANYGESVRGRFTISRDDSKNTVYLQMNSLKTEDTAVYYCSASYYRYDVGAWFAYWGQGTLVTVSS VL: DIVMTQSPDSLAVSLGERATINCRASKSVSTSGYSYIYWYQQKPGQPPKLLIYLASILESGVPDRFSGSGSGTDFTLTISSLQAEDVAVYYCQHSRELPWTFGQGTKVEIKR	15.7	21.5	21.9	19.7	–
LC master HC S101T (antibody, V domains shown) VH: EEQLVESGGGLVKPGGSLRLSCAASGFSFSDCRMYWLRQAPGKGLEWIGVISVKSENYGANYAESVRGRFTISRDDSKNTVYLQMNSLKTEDTAVYYCSATYYRYDVGAWFAYWGQGTLVTVSS VL: DIVMTQSPDSLAVSLGERATINCRASKSVSTSGYSYIYWYQQKPGQPPKLLIYLASILESGVPDRFSGSGSGTDFTLTISSLQAEDVAVYYCQHSRELPWTFGQGTKVEIKR	3.1	-3.6	0	-0.2	–
BT061 variant LC master HC Y105W (antibody, V domains shown, also called knockout mutant) VH: EEQLVESGGGLVKPGGSLRLSCAASGFSFSDCRMYWLRQAPGKGLEWIGVISVKSENYGANYAESVRGRFTISRDDSKNTVYLQMNSLKTEDTAVYYCSASYYRWDVGAWFAYWGQGTLVTVSS VL: DIVMTQSPDSLAVSLGERATINCRASKSVSTSGYSYIYWYQQKPGQPPKLLIYLASILESGVPDRFSGSGSGTDFTLTISSLQAEDVAVYYCQHSRELPWTFGQGTKVEIKR	–	–	–	–	no binding
LC A55G HC R33K (antibody, V domains shown) VH: EEQLVESGGGLVKPGGSLRLSCAASGFSFSDCKMYWLRQAPGKGLEWIGVISVKSENYGANYAESVRGRFTISRDDSKNTVYLQMNSLKTEDTAVYYCSASYYRYDVGAWFAYWGQGTLVTVSS VL: DIVMTQSPDSLAVSLGERATINCRASKSVSTSGYSYIYWYQQKPGQPPKLLIYLGSILESGVPDRFSGSGSGTDFTLTISSLQAEDVAVYYCQHSRELPWTFGQGTKVEIKR	12.1	6.4	19.3	12.6	–
LC master HC R33K (antibody, V domains shown) VH: EEQLVESGGGLVKPGGSLRLSCAASGFSFSDCKMYWLRQAPGKGLEWIGVISVKSENYGANYAESVRGRFTISRDDSKNTVYLQMNSLKTEDTAVYYCSASYYRYDVGAWFAYWGQGTLVTVSS VL: DIVMTQSPDSLAVSLGERATINCRASKSVSTSGYSYIYWYQQKPGQPPKLLIYLASILESGVPDRFSGSGSGTDFTLTISSLQAEDVAVYYCQHSRELPWTFGQGTKVEIKR	19.8	18.8	15	17.9	–
LC master HC master (antibody, human IgG1, kappa, V domains shown) VH: EEQLVESGGGLVKPGGSLRLSCAASGFSFSDCRMYWLRQAPGKGLEWIGVISVKSENYGANYAESVRGRFTISRDDSKNTVYLQMNSLKTEDTAVYYCSASYYRYDVGAWFAYWGQGTLVTVSS VL: DIVMTQSPDSLAVSLGERATINCRASKSVSTSGYSYIYWYQQKPGQPPKLLIYLASILESGVPDRFSGSGSGTDFTLTISSLQAEDVAVYYCQHSRELPWTFGQGTKVEIKR	–	25.4	25.9	26.3	–
LC G33A HC R33K (antibody, V domains shown) VH: EEQLVESGGGLVKPGGSLRLSCAASGFSFSDCKMYWLRQAPGKGLEWIGVISVKSENYGANYAESVRGRFTISRDDSKNTVYLQMNSLKTEDTAVYYCSASYYRYDVGAWFAYWGQGTLVTVSS VL: DIVMTQSPDSLAVSLGERATINCRASKSVSTSAYSYIYWYQQKPGQPPKLLIYLASILESGVPDRFSGSGSGTDFTLTISSLQAEDVAVYYCQHSRELPWTFGQGTKVEIKR	6.5	7.9	9	7.8	–
LC master HC Y105W (antibody, V domains shown) VH: EEQLVESGGGLVKPGGSLRLSCAASGFSFSDCRMYWLRQAPGKGLEWIGVISVKSENYGANYAESVRGRFTISRDDSKNTVYLQMNSLKTEDTAVYYCSASYYRWDVGAWFAYWGQGTLVTVSS VL: DIVMTQSPDSLAVSLGERATINCRASKSVSTSGYSYIYWYQQKPGQPPKLLIYLASILESGVPDRFSGSGSGTDFTLTISSLQAEDVAVYYCQHSRELPWTFGQGTKVEIKR	5.3	2	7	4.8	–
LC L98I HC R33K (antibody, V domains shown) VH: EEQLVESGGGLVKPGGSLRLSCAASGFSFSDCKMYWLRQAPGKGLEWIGVISVKSENYGANYAESVRGRFTISRDDSKNTVYLQMNSLKTEDTAVYYCSASYYRYDVGAWFAYWGQGTLVTVSS VL: DIVMTQSPDSLAVSLGERATINCRASKSVSTSGYSYIYWYQQKPGQPPKLLIYLASILESGVPDRFSGSGSGTDFTLTISSLQAEDVAVYYCQHSREIPWTFGQGTKVEIKR	9.2	24.3	24.6	19.4	–
LC master HC A63G (antibody, V domains shown) VH: EEQLVESGGGLVKPGGSLRLSCAASGFSFSDCRMYWLRQAPGKGLEWIGVISVKSENYGANYGESVRGRFTISRDDSKNTVYLQMNSLKTEDTAVYYCSASYYRYDVGAWFAYWGQGTLVTVSS VL: DIVMTQSPDSLAVSLGERATINCRASKSVSTSGYSYIYWYQQKPGQPPKLLIYLASILESGVPDRFSGSGSGTDFTLTISSLQAEDVAVYYCQHSRELPWTFGQGTKVEIKR	33.1	25.5	19.5	26	–
